Data as given in US20150216948A1, “CYTOCHROME P450 SUICIDE GENE SYSTEM” (priority 2012, published 2015).
Like-named read-outs stand apart in the source and are kept apart here.

Key:
[1] = test system: HepG2 cells; experiment: 4-IPO toxicity assay: survival of transduced HepG2 cells by flow cytometry (propidium iodine); type: cell-based, human; conditions: for 4-IPO processing activity / cell killing (in words): transduced cells challenged with 4-IPO
From the text: Initially, the serine at position 427 in the human CYP4B1 was mutated back to proline (h-P427), which is present at this position in all CYP4B1 proteins. Additionally a proline to serine exchange was created in the native rabbit CYP4B1 enzyme at the corresponding position 422 (r-P422). To immediately exclude the possibility that the different activities between human and the rabbit protein isoforms are simply due to differences in mRNA stability, the human CYP4B1 cDNA (SEQ ID NO.: 2) was optimized for human-codon usage (SEQ ID NO.: 3) by de novo synthesis with silent mutagenesis of the cDNA, thus removing internal TATA-boxes, instability motives, RNA secondary structures and (cryptic) splice donor/acceptor sites and ensuring an average GC content of around 60%. All cDNAs were cloned into the same lentiviral (LV) HIV1-based expression vector and LV supernatants produced by plasmid transfection in HEK293T cells. Subsequently, the two rabbit and the four human cDNAs were stably expressed in the human liver cell line HepG2. Stably expressing transduced cells were challenged after five days with increasing concentrations of 4-IPO for 24, 48 and 72 hours and then the survival of cells analyzed by flow cytometry using propidium iodine for live/dead cell discrimination.
(§1) Next, it was analyzed whether the different activities of the human and the rabbit proteins in processing 4-IPO could be explained by differences in protein half-life. However, as no antibody was available that can detect both CYP4B1 proteins, EGFP fusion constructs were generated. With these constructs, EGFP antibodies can be utilized to visualize and compare the expression levels and the half-lives of the fusion proteins in cells by western blots. EGFP expression can also be used for flow cytometry assessment of the expression levels due to the fluorescent properties of the fusion proteins. 5′- and 3′-fusions of EGFP with the native rabbit P422 and the human P427 CYP4B1 proteins were cloned in LV vectors with an IRES-NEO (NEO=neomycin phosphotransferase cDNA, npt II) and stably expressed in HepG2 cells (FIG. 3 B). For comparison, the corresponding IRES-EGFP constructs were also included, as these vectors had already been used in previous experiments and activity measurements thus already existed. Transduced cells were incubated for 24, 48 and 72 hours with increasing concentration of 4-IPO. Cultures were then harvested, cells stained with propidium iodine and subsequently analyzed for survival of transduced EGFP+ cells by flow cytometry (FIG. 3 A).

[2] = relative to rabbit CYP4B1, cited from earlier work
[3] = test system: HepG2 cells; experiment: Half-life of CYP4B1/EGFP fusion proteins after cycloheximide (western blot, FACS); type: cell-based, human; conditions: EGFP fusion; for protein half-life: 50 μg/ml cycloheximide, G418-selected HepG2 cells
Experimental: FIGS. 3 C and D show CYP4B1 stability as analysed by western blotting and by flow cytometry. The studies on protein expression and stability were performed with the rabbit and human CYP4B1/EGFP fusion construction in the lentiviral vector with the additional IRES-neomycin cassette. Half-life analysis was performed by adding 50 μg/ml cycloheximide to the transduced and G418-selected HepG2 cells. Samples were collected at the indicated time points.
as §1
After standard inhibition of de novo protein synthesis by cycloheximide, the half-life of the CYP4B1 proteins in stably transduced and G418-resistant HepG2 cells was assessed by determining the protein expression levels over time either in western blotting or in FACS analysis as EGFP fluorescence. […] For the human native protein (h-S427), the mean fluorescence indicates a short average half-life of only 6 hours.

[4] = test system: primary human T-cells; experiment: 4-IPO toxicity in transduced primary T-cells; type: cell-based; conditions: 24 h and 72 h exposure to increasing doses of 4-IPO, EGFP fusions, FIG. 7 B
From the text: Compared to the HepG2 liver cells, primary T-cells might not provide an optimal environment for the function of P450 cytochromes (although the necessary reductase is ubiquitously expressed) and the infection of primary T-cells is considerably more complex.
The T cells were isolated by Ficoll and stimulated with CD3, CD28 and IL2 for 3 days before they were infected with lentiviral vectors using fibronectin. For optimal toxicity in T cells, the suicide genes were not expressed as EGFP fusions proteins but a IRES-EGFP-WPRO vector construct was used. […] However, after 24 hours over 70% of the transgenic T cells were eliminated by CYP4B1 P427 mut12. […] The determination of the virus titer was based on the titration of the reference cell line HT1080.

| Molecule | 4-IPO processing activity / cell killing (in words) ([1]; listed as native CYP4B1 protein) | 4-IPO processing activity / cell killing (in words) ([1]; listed as native human CYP4B1 S427 protein) | activity to activate 4-IPO compared to the rabbit CYP4B1 [2] [%] | activity to activate 4-IPO compared to the rabbit CYP4B1 ([2]; listed as human isoform) [%] | protein half-life [3] [h] | 4-IPO processing activity / cell killing (in words) [1] | reduction in cell survival rates ([1]; transduced cells with 4-IPO, FIG. 2) | cell survival rates upon administration of 4-IPO ([1]; transduced cells, FIG. 2) | killing of primary T-cells with 4-IPO (in words) [4] | transduced HepG2 cells eliminated / dead ([1]; after 24 hours of 4-IPO treatment, FIG. 2) | protein stability (in words) ([3]; cycloheximide, HepG2 cells) |
| --- | --- | --- | --- | --- | --- | --- | --- | --- | --- | --- | --- |
| h-S427: native human CYP4B1 protein with serine at position 427 (protein, listed as Homo sapiens) MVPSFLSLSFSSLGLWASGLILVLGFLKLIHLLLRRQTLAKAMDKFPGPPTHWLFGHALEIQETGSLDKVVSWAHQFPYAHPLWFGQFIGFLNIYEPDYAKAVYSRGDPKAPDVYDFFLQWIGRGLLVLEGPKWLQHRKLLTPGFHYDVLKPYVAVFTESTRIMLDKWEEKAREGKSFDIFCDVGHMALNTLMKCTFGRGDTGLGHRDSSYYLAVSDLTLLMQQRLVSFQYHNDFIYWLTPHGRRFLRACQVAHDHTDQVIRERKAALQDEKVRKKIQNRRHLDFLDILLGARDEDDIKLSDADLRAEVDTFMFEGHDTTTSGISWFLYCMALYPEHQHRCREEVREILGDQDFFQWDDLGKMTYLTMCIKESFRLYPPVPQVYRQLSKPVTFVDGRSLPAGSLISMHIYALHRNSAVWPDPEVFDSLRFSTENASKRHPFAFMPFSAGPRNCIGQQFAMSEMKVVTAMCLLRFEFSLDPSRLPIKMPQLVLRSKNGFHLHLKPLGPGSGK | comparable to the survival rate of non-transduced control cells | cannot process 4-IPO at all | > 1 | ≤ 1 | 6 | – | – | – | – | – | – |
| h-P427: human CYP4B1 with serine at position 427 mutated back to proline (protein) MVPSFLSLSFSSLGLWASGLILVLGFLKLIHLLLRRQTLAKAMDKFPGPPTHWLFGHALEIQETGSLDKVVSWAHQFPYAHPLWFGQFIGFLNIYEPDYAKAVYSRGDPKAPDVYDFFLQWIGKGLLVLDGPKWFQHRKLLTPGFHYDVLKPYVAIFADSTRIMLEKWEKKACEGKSFDIFSDVGHMALDTLMKCTFGKGDSGLNHRDSSYYVAVSELTLLMQQRIDSFQYHNDFIYWLTPHGRRFLRACQVAHDHTDQVIRERKAALQDEKVRKKIQNRRHLDFLDILLGARDEDDIKLSDADLRAEVDTFMFEGHDTTTSGISWFLYCMALYPEHQHRCREEVREILGDQDFFQWDDLGKMTYLTMCIKESFRLYPPVPQVYRQLSKPVTFVDGRSLPAGSLISMHIYALHRNSAVWPDPEVFDPLRFSTENASKRHPFAFMPFSAGPRNCIGQQFAMSEMKVVTAMCLLRFEFSLDPSRLPIKMPQLVLRSKNGFHLHLKPLGPGSGK | – | – | – | – | 20 | rendered this enzyme active for processing 4-IPO | about 50% | about 45% | can be killed within three days | – | – |
| r-P422: wildtype rabbit CYP4B1 enzyme (protein, listed as Oryctolagus cuniculus) MLGFLSRLGLWASGLILILGFLKLLRLLLRRQRLARAMDSFPGPPTHWLFGHALEIQKTGSLDKVVTWTQQFPYAHPLWVGQFIGFLNIYEPDYAKAVYSRGDPKAPDVYDFFLQWIGKGLLVLDGPKWFQHRKLLTPGFHYDVLKPYVAIFADSTRIMLEKWEKKACEGKSFDIFSDVGHMALDTLMKCTFGKGDSGLNHRDSSYYVAVSELTLLMQQRIDSFQYHNDFIYWLTPHGRRFLRACRAAHDHTDRVIRQRKAALQDEKEREKIQNRRHLDFLDILLDVRGESGVQLSDTDLRAEVDTFMFEGHDTTTSGISWFLYCMALYPEHQQRCREEVREILGDQDSFQWEDLAKMTYLTMCMKECFRLYPPVPQVYRQLSKPVSFVDGRSLPAGSLISLHIYALHRNSDVWPDPEVFDPLRFSPENSSGRHPYAFIPFSAGPRNCIGQQFAMNEMKVVTALCLLRFEFSVDPLRLPIKLPQLVLRSKNGIHLYLKPLGPK | – | – | – | – | – | – | – | – | more active than the native P427 and the human codon-optimized P427 CYP4B1 enzymes | over 95% | strongest protein stability |
